Reference: patent EP4813403A1 (Hangzhou Zhongmeihuadong Pharmaceutical Co., Ltd., dated 2025)

Target: T1, human GIP receptor (human, UniProt P48546 22-466)
T1 sequence (looked up): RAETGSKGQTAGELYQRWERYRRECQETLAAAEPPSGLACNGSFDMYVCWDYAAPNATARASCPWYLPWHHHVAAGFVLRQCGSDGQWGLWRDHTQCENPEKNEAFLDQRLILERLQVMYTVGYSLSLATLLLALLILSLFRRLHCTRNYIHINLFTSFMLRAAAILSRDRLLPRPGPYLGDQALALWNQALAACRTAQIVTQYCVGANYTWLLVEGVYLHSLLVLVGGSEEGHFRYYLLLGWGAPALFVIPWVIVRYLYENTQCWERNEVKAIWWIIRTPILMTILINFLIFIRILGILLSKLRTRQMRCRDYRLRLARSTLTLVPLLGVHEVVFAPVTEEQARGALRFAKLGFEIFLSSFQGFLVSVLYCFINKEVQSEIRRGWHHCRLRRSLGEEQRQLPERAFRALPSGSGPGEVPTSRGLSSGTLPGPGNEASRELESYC
Experiment: cell-based or functional assay

B1: P007 (peptide)
peptide: YXEGTXTSDYXIXLDKQAQAEFVKWLLKGGPSSGAPPPSK
modifications: Aib at 2; αMePhe at 6; Aib at 11; Aib at 13; K at position 24 ε-amino conjugated with ([2-(2-amino-ethoxy)-ethoxy]-acetyl)2-(γ-Glu)1-CO-(CH2)16-CO2H; C-terminal primary amide
  EC50 value (ratio: EC50 of endogenous ligand / EC50 of test compound), LANCE Ultra cAMP assay, HEK293/GIPR cells: 1.15 ratio
